Biological target: human CD3 on Jurkat cells (Homo sapiens (endogenous, Jurkat), UniProt P07766;P04234)
Test: flow cytometry on cells

human CD3 on Jurkat cells, sequence (P04234 whole entry, looked up, chain 1 of 2): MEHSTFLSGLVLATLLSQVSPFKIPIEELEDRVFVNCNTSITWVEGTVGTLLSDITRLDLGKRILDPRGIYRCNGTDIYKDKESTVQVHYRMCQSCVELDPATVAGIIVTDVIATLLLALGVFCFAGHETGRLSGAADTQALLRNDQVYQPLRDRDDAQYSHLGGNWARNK
human CD3 on Jurkat cells, sequence (P07766 23-207, looked up, chain 2 of 2): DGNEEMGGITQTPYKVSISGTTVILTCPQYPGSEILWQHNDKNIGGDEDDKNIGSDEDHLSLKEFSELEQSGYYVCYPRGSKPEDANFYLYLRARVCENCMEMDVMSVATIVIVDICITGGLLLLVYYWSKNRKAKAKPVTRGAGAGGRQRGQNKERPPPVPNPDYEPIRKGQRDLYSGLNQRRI

B1: R11 scFv-Fc (homodimeric monospecific anti-ROR1 scFv-Fc) (Fc fusion)
VH: QSVKESEGDLVTPAGNLTLTCTASGSDINDYPISWVRQAPGKGLEWIGFINSGGSTWYASWVKGRFTISRTSTTVDLKMTSLTTDDTATYFCARGYSTYYGDFNIWGPGTLVTISS
VL: ELVMTQTPSSTSGAVGGTVTINCQASQSIDSNLAWFQQKPGQPPTLLIYRASNLASGVPSRFSGSRSGTEYTLTISGVQREDAATYYCLGGVGNVSYRTSFGGGTEVVVK
Question: Does B1 bind?
Answer: no binding (tested: 5 μg/mL)
